Test results taken from paper PMC9177957 (Nucleic Acids Research, 2022).

B1: GST-tagged full-length human ANP32B (natural protein)
chain: MDMKRRIHLELRNRTPAAVRELVLDNCKSNDGKIEGLTAEFVNLEFLSLINVGLISVSNLPKLPKLKKLELSENRIFGGLDMLAEKLPNLTHLNLSGNKLKDISTLEPLKKLECLKSLDLFNCEVTNLNDYRESVFKLLPQLTYLDGYDREDQEAPDSDAEVDGVDEEEEDEEGEDEEDEDDEDGEEEEFDEEDDEDEDVEGDEDDDEVSEEEEEFGLDEEDEDEDEDEEEEEGGKGEKRKRETDDEGEDD
notes: also called GST-huANP32B; huANP32B WT; source: E. coli, purified (Glutathione Sepharose, eluted with reduced glutathione); not shown: GST, N-terminal, kept
B2: GST-tagged full-length human ANP32A (natural protein)
chain: MEMGRRIHLELRNRTPSDVKELVLDNSRSNEGKLEGLTDEFEELEFLSTINVGLTSIANLPKLNKLKKLELSDNRVSGGLEVLAEKCPNLTHLNLSGNKIKDLSTIEPLKKLENLKSLDLFNCEVTNLNDYRENVFKLLPQLTYLDGYDRDDKEAPDSDAEGYVEGLDDEEEDEDEEEYDEDAQVVEDEEDEDEEEEGEEEDVSGEEEEDEEGYNDGEVDDEEDEEELGEEERGQKRKREPEDEGEDDD
notes: also called GST-huANP32A; huANP32A WT; source: E. coli, purified (Glutathione Sepharose, eluted with reduced glutathione); not shown: GST, N-terminal, kept

Biological target: T1, wildtype NP of influenza A/NT/60/1968 (H3N2) virus (influenza A/NT/60/1968 (H3N2) virus, UniProt P03467 1-498)
T1 construct: not shown: GST, N-terminal, cleaved
Experiment: pull-down
Conditions: both partners purified

Binder	binding result
B1	binds
B2	binds
